B1: WT-BDD-FVIII (wild-type B-domain-deleted factor VIII) (natural protein)
chain 1: ATRRYYLGAVELSWDYMQSDLGELPVDARFPPRVPKSFPFNTSVVYKKTLFVEFTDHLFNIAKPRPPWMGLLGPTIQAEVYDTVVITLKNMASHPVSLHAVGVSYWKASEGAEYDDQTSQREKEDDKVFPGGSHTYVWQVLKENGPMASDPLCLTYSYLSHVDLVKDLNSGLIGALLVCREGSLAKEKTQTLHKFILLFAVFDEGKSWHSETKNSLMQDRDAASARAWPKMHTVNGYVNRSLPGLIGCHRKSVYWHVIGMGTTPEVHSIFLEGHTFLVRNHRQASLEISPITFLTAQTLLMDLGQFLLFCHISSHQHDGMEAYVKVDSCPEEPQLRMKNNEEAEDYDDDLTDSEMDVVRFDDDNSPSFIQIRSVAKKHPKTWVHYIAAEEEDWDYAPLVLAPDDRSYKSQYLNNGPQRIGRKYKKVRFMAYTDETFKTREAIQHESGILGPLLYGEVGDTLLIIFKNQASRPYNIYPHGITDVRPLYSRRLPKGVKHLKDFPILPGEIFKYKWTVTVEDGPTKSDPRCLTRYYSSFVNMERDLASGLIGPLLICYKESVDQRGNQIMSDKRNVILFSVFDENRSWYLTENIQRFLPNPAGVQLEDPEFQASNIMHSINGYVFDSLQLSVCLHEVAYWYILSIGAQTDFLSVFFSGYTFKHKMVYEDTLTLFPFSGETVFMSMENPGLWILGCHNSDFRNRGMTALLKVSSCDKNTGDYYEDSYEDISAYLLSKNNAIEPR
chain 2: EITRTTLQSDQEEIDYDDTISVEMKKEDFDIYDEDENQSPRSFQKKTRHYFIAAVERLWDYGMSSSPHVLRNRAQSGSVPQFKKVVFQEFTDGSFTQPLYRGELNEHLGLLGPYIRAEVEDNIMVTFRNQASRPYSFYSSLISYEEDQRQGAEPRKNFVKPNETKTYFWKVQHHMAPTKDEFDCKAWAYFSDVDLEKDVHSGLIGPLLVCHTNTLNPAHGRQVTVQEFALFFTIFDETKSWYFTENMERNCRAPCNIQMEDPTFKENYRFHAINGYIMDTLPGLVMAQDQRIRWYLLSMGSNENIHSIHFSGHVFTVRKKEEYKMALYNLYPGVFETVEMLPSKAGIWRVECLIGEHLHAGMSTLFLVYSNKCQTPLGMASGHIRDFQITASGQYGQWAPKLARLHYSGSINAWSTKEPFSWIKVDLLAPMIIHGIKTQGARQKFSSLYISQFIIMYSLDGKKWQTYRGNSTGTLMVFFGNVDSSGIKHNIFNPPIIARYIRLHPTHYSIRSTLRMELMGCDLNSCSMPLGMESKAISDAQITASSYFTNMFATWSPSKARLHLQGRSNAWRPQVNNPKEWLQVDFQKTMKVTGVTTQGVKSLLTSMYVKEFLISSSQDGHQWTLFFQNGKVKVFQGNQDSFTPVVNSLDPPLLTRYLRIHPQSWVHQIALRMEVLGCEAQDLY
B2: BDD-FVIII-M2199A (natural protein)
chain 1: ATRRYYLGAVELSWDYMQSDLGELPVDARFPPRVPKSFPFNTSVVYKKTLFVEFTDHLFNIAKPRPPWMGLLGPTIQAEVYDTVVITLKNMASHPVSLHAVGVSYWKASEGAEYDDQTSQREKEDDKVFPGGSHTYVWQVLKENGPMASDPLCLTYSYLSHVDLVKDLNSGLIGALLVCREGSLAKEKTQTLHKFILLFAVFDEGKSWHSETKNSLMQDRDAASARAWPKMHTVNGYVNRSLPGLIGCHRKSVYWHVIGMGTTPEVHSIFLEGHTFLVRNHRQASLEISPITFLTAQTLLMDLGQFLLFCHISSHQHDGMEAYVKVDSCPEEPQLRMKNNEEAEDYDDDLTDSEMDVVRFDDDNSPSFIQIRSVAKKHPKTWVHYIAAEEEDWDYAPLVLAPDDRSYKSQYLNNGPQRIGRKYKKVRFMAYTDETFKTREAIQHESGILGPLLYGEVGDTLLIIFKNQASRPYNIYPHGITDVRPLYSRRLPKGVKHLKDFPILPGEIFKYKWTVTVEDGPTKSDPRCLTRYYSSFVNMERDLASGLIGPLLICYKESVDQRGNQIMSDKRNVILFSVFDENRSWYLTENIQRFLPNPAGVQLEDPEFQASNIMHSINGYVFDSLQLSVCLHEVAYWYILSIGAQTDFLSVFFSGYTFKHKMVYEDTLTLFPFSGETVFMSMENPGLWILGCHNSDFRNRGMTALLKVSSCDKNTGDYYEDSYEDISAYLLSKNNAIEPR
chain 2: EITRTTLQSDQEEIDYDDTISVEMKKEDFDIYDEDENQSPRSFQKKTRHYFIAAVERLWDYGMSSSPHVLRNRAQSGSVPQFKKVVFQEFTDGSFTQPLYRGELNEHLGLLGPYIRAEVEDNIMVTFRNQASRPYSFYSSLISYEEDQRQGAEPRKNFVKPNETKTYFWKVQHHMAPTKDEFDCKAWAYFSDVDLEKDVHSGLIGPLLVCHTNTLNPAHGRQVTVQEFALFFTIFDETKSWYFTENMERNCRAPCNIQMEDPTFKENYRFHAINGYIMDTLPGLVMAQDQRIRWYLLSMGSNENIHSIHFSGHVFTVRKKEEYKMALYNLYPGVFETVEMLPSKAGIWRVECLIGEHLHAGMSTLFLVYSNKCQTPLGMASGHIRDFQITASGQYGQWAPKLARLHYSGSINAWSTKEPFSWIKVDLLAPMIIHGIKTQGARQKFSSLYISQFIIMYSLDGKKWQTYRGNSTGTLMVFFGNVDSSGIKHNIFNPPIIARYIRLHPTHYSIRSTLRMELMGCDLNSCSMPLGMESKAISDAQITASSYFTNAFATWSPSKARLHLQGRSNAWRPQVNNPKEWLQVDFQKTMKVTGVTTQGVKSLLTSMYVKEFLISSSQDGHQWTLFFQNGKVKVFQGNQDSFTPVVNSLDPPLLTRYLRIHPQSWVHQIALRMEVLGCEAQDLY
B3: BDD-FVIII-F2196K (natural protein)
chain 1: ATRRYYLGAVELSWDYMQSDLGELPVDARFPPRVPKSFPFNTSVVYKKTLFVEFTDHLFNIAKPRPPWMGLLGPTIQAEVYDTVVITLKNMASHPVSLHAVGVSYWKASEGAEYDDQTSQREKEDDKVFPGGSHTYVWQVLKENGPMASDPLCLTYSYLSHVDLVKDLNSGLIGALLVCREGSLAKEKTQTLHKFILLFAVFDEGKSWHSETKNSLMQDRDAASARAWPKMHTVNGYVNRSLPGLIGCHRKSVYWHVIGMGTTPEVHSIFLEGHTFLVRNHRQASLEISPITFLTAQTLLMDLGQFLLFCHISSHQHDGMEAYVKVDSCPEEPQLRMKNNEEAEDYDDDLTDSEMDVVRFDDDNSPSFIQIRSVAKKHPKTWVHYIAAEEEDWDYAPLVLAPDDRSYKSQYLNNGPQRIGRKYKKVRFMAYTDETFKTREAIQHESGILGPLLYGEVGDTLLIIFKNQASRPYNIYPHGITDVRPLYSRRLPKGVKHLKDFPILPGEIFKYKWTVTVEDGPTKSDPRCLTRYYSSFVNMERDLASGLIGPLLICYKESVDQRGNQIMSDKRNVILFSVFDENRSWYLTENIQRFLPNPAGVQLEDPEFQASNIMHSINGYVFDSLQLSVCLHEVAYWYILSIGAQTDFLSVFFSGYTFKHKMVYEDTLTLFPFSGETVFMSMENPGLWILGCHNSDFRNRGMTALLKVSSCDKNTGDYYEDSYEDISAYLLSKNNAIEPR
chain 2: EITRTTLQSDQEEIDYDDTISVEMKKEDFDIYDEDENQSPRSFQKKTRHYFIAAVERLWDYGMSSSPHVLRNRAQSGSVPQFKKVVFQEFTDGSFTQPLYRGELNEHLGLLGPYIRAEVEDNIMVTFRNQASRPYSFYSSLISYEEDQRQGAEPRKNFVKPNETKTYFWKVQHHMAPTKDEFDCKAWAYFSDVDLEKDVHSGLIGPLLVCHTNTLNPAHGRQVTVQEFALFFTIFDETKSWYFTENMERNCRAPCNIQMEDPTFKENYRFHAINGYIMDTLPGLVMAQDQRIRWYLLSMGSNENIHSIHFSGHVFTVRKKEEYKMALYNLYPGVFETVEMLPSKAGIWRVECLIGEHLHAGMSTLFLVYSNKCQTPLGMASGHIRDFQITASGQYGQWAPKLARLHYSGSINAWSTKEPFSWIKVDLLAPMIIHGIKTQGARQKFSSLYISQFIIMYSLDGKKWQTYRGNSTGTLMVFFGNVDSSGIKHNIFNPPIIARYIRLHPTHYSIRSTLRMELMGCDLNSCSMPLGMESKAISDAQITASSYKTNMFATWSPSKARLHLQGRSNAWRPQVNNPKEWLQVDFQKTMKVTGVTTQGVKSLLTSMYVKEFLISSSQDGHQWTLFFQNGKVKVFQGNQDSFTPVVNSLDPPLLTRYLRIHPQSWVHQIALRMEVLGCEAQDLY

target: T1, von Willebrand factor (VWF) (UniProt P04275 764-2813); assay: SPR; VWF attached to a CM4 chip by amine coupling at low density (200 RUs); BDD-FVIII proteins injected in a 3-fold concentration series from 0.22-18 nM, single-cycle kinetics; fit to a 1:1 model; Biacore T200; details: both partners purified
T1 construct: von Willebrand factor; Immobilised by amine coupling

B1 and B2 are within 1.5-fold of each other in Kd: 0.29 nM for the first, 0.25 nM for the second.

Binder B3 has a Kd of 0.2 nM.

B1 and B2 are within 1.5-fold of each other in koff: 0.00069 s⁻¹ for the first, 0.00067 s⁻¹ for the second.

For B3, the koff was 0.00054 s⁻¹.

B1 and B2 are within 1.5-fold of each other in kon: 2.4e+06 M⁻¹ s⁻¹ for the first, 2.7e+06 M⁻¹ s⁻¹ for the second.

In the case of B3, the kon is reported as 2.9e+06 M⁻¹ s⁻¹.
